Results taken from publication PMC3400614, “Cofactor Binding Protects Flavodoxin against Oxidative Stress” (PLoS ONE, 2012).

How the values were obtained:
[1] = target: T1, flavodoxin II (flavodoxin; apoflavodoxin) (Azotobacter vinelandii, UniProt P00324); experiment: native nano-electrospray mass spectrometry; type: binding; conditions: non-covalent, one FMN per monomer; 50 mM ammonium acetate, 0.1 mM EDTA, pH 6.8
T1 construct: gene nifF; full-length wild type, 179 residues, expressed in E. coli TG2 (pAV34); monomer; apoprotein made by TCA precipitation

[2] = target: Apoflavodoxin (A. vinelandii flavodoxin II without FMN cofactor) (Azotobacter vinelandii) (UniProt P00324); experiment: SEC; Superdex 75 HR 10/30, 0.5 mL/min, 25°C; apoprotein (38 μM wild type, 79 μM C69A) fresh and after 22-24 h with 10 mM H2O2 at 4°C; DTT removed before
[3] = target: Apoflavodoxin (A. vinelandii flavodoxin II without FMN cofactor) (Azotobacter vinelandii) (UniProt P00324); experiment: LC-MS; reversed phase (acetonitrile, TFA) and electrospray MS; protein 5 µM after 30 min at room temperature with 10 or 100 mM H2O2, with or without 190-200 µM NBD-Cl; denaturing, shows covalent dimers only
[4] = target: Apoflavodoxin (A. vinelandii flavodoxin II without FMN cofactor) (Azotobacter vinelandii) (UniProt P00324); experiment: anion exchange chromatography; MonoQ HR5/5, 25 mM Tris-HCl pH 8.0, KCl gradient, 1.0 mL/min, 25°C; apoflavodoxin 50 μM left without DTT
[5] = target: Apoflavodoxin (A. vinelandii flavodoxin II without FMN cofactor) (Azotobacter vinelandii) (UniProt P00324); experiment: SEC; data not shown; apoflavodoxin freshly prepared and during storage

T1 sequence (P00324 2-180): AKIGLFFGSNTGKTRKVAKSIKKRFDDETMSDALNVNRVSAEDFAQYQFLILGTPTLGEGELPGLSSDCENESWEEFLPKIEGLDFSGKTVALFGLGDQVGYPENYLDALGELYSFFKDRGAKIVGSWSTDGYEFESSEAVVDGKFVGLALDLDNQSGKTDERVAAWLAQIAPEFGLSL

stoichiometry N [2]	stoichiometry N [3]	stoichiometry N [4]	stoichiometry N [5]	Compound	native nano-electrospray mass spectrometry [1]
				Cc1cc2nc3c(=O)[nH]c(=O)nc-3n(C[C@H](O)[C@H](O)[C@H](O)COP(=O)(O)O)c2cc1C [FMN]	flavodoxin indeed contains a single, non-covalently bound, FMN cofactor
2	2	2	2	Apoflavodoxin (A. vinelandii flavodoxin II without FMN cofactor) (from UniProt P00324 1-180) (natural protein)	
